This assay concerns the target plastidic glutamine synthetase (GS2), spinach, 420 kDa stromal holoenzyme (spinach (Spinacia oleracea), endogenous in leaf chloroplasts). As to the kind of experiment: native gel or EMSA; BN-PAGE (4-16% Bis-Tris gradient gel, 4°C) of stroma and thylakoid proteins of chloroplasts, western blot, with 2D SDS-PAGE; extraction in 20 mM Hepes-KOH pH 7.5, or potassium phosphate pH 6 or pH 8 with or without 0.1 M NaCl, 10 mM DTT or 10 mM ascorbic acid. A general note: In EMSA bound probe runs differently from free probe, usually more slowly.

“plastidic glutamine synthetase (GS2), spinach, 420 kDa stromal holoenzyme”: the stoichiometry N – broadly, a count of units in the complex or per binding partner – was 10.
